Source: paper PMC3617236

Experiments:
[1] = target: recombinant His-tagged Wolbachia surface protein wBm0152 (Wolbachia endosymbiont of B. malayi (wBm)); test: ELISA
[2] = target: recombinant His-tagged B. malayi fructose-bisphosphate aldolase (B. malayi); test: far-Western, overlay or dot blot; His-Bm-aldolase (3 µg per lane) run on SDS-PAGE and blotted on nitrocellulose; strips incubated with 1, 2, 5 or 10 µg/ml His-wBm0432 in overlay buffer, 3 h, room temperature; signals quantified with GeneSnap

Row | Substance | Kd [1] | Kd [2]
1 | purified bovine actin (from UniProt P68138 1-377) (natural protein) | 570 nM | –
2 | recombinant His-tagged Wolbachia surface protein wBm0432 (natural protein) | – | 510 nM
